{
  "source": "paper PMC9614721",
  "about": "“Polyvalent Glycan Quantum Dots as a Multifunctional Tool for Revealing Thermodynamic, Kinetic, and Structural Details of Multivalent Lectin–Glycan Interactions” (ACS Applied Materials & Interfaces, 2022)",
  "key": {"[1]": {"molecular_target": "DC-SIGN with its C-terminal 16 amino acids truncated, soluble extracellular segment, Q274C, labeled with Atto-594 (UniProt Q9NNX6)", "experiment": "dynamic light scattering; purified lectins in solution; hydrodynamic diameters ~14 nm; identity also checked by HRMS and UV-vis spectroscopy"}, "[2]": {"molecular_target": "the molecule itself", "experiment": "dynamic light scattering; purified lectins in solution; hydrodynamic diameters ~14 nm; identity also checked by HRMS and UV-vis spectroscopy"}},
  "data": [
    {"molecule": "DC-SIGN with its C-terminal 16 amino acids truncated, soluble extracellular segment, Q274C, labeled with Atto-594 (from UniProt Q9NNX6 59-404) (domain or fragment)", "values": [
      {"measurement": "stoichiometry N", "setting": "[1]", "value": 4}
    ]},
    {"molecule": "DC-SIGNR, soluble extracellular segment, R287C, labeled with Atto-594 (domain or fragment, UniProt Q9H2X3 71-399, looked up, maleimide-modified Atto-594 dye on the cysteine introduced at R287 (labeling efficiency ~85% per monomer), DC-SIGNR, soluble extracellular segment; also called a DC-SIGN related lectin found on endothelial cells; source: expressed, purified) QVSKVPSSLSQEQSEQDAIYQNLTQLKAAVGELSEKSKLQEIYQELTQLKAAVGELPEKSKLQEIYQELTRLKAAVGELPEKSKLQEIYQELTRLKAAVGELPEKSKLQEIYQELTRLKAAVGELPEKSKLQEIYQELTELKAAVGELPEKSKLQEIYQELTQLKAAVGELPDQSKQQQIYQELTDLKTAFERLCRHCPKDWTFFQGNCYFMSNSQCNWHDSVTACQEVRAQLVVIKTAEEQNFLQLQTSRSNRFSWMGLSDLNQEGTWQWVDGSPLSPSFQRYWNSGEPNNSGNEDCAEFSGSGWNDNRCDVDNYWICKKPAACFRDE", "values": [
      {"measurement": "stoichiometry N", "setting": "[2]", "value": 4}
    ]},
    {"molecule": "DC-SIGN, soluble extracellular segment, Q274C, labeled with Atto-594 (domain or fragment, UniProt Q9NNX6 59-404, looked up, maleimide-modified Atto-594 dye on the cysteine introduced at Q274 (labeling efficiency ~85% per monomer), DC-SIGN, soluble extracellular segment; also called dendritic-cell-specific intercellular adhesion molecule-3-grabbing nonintegrin; source: expressed, purified) QVSKVPSSISQEQSRQDAIYQNLTQLKAAVGELSEKSKLQEIYQELTQLKAAVGELPEKSKLQEIYQELTRLKAAVGELPEKSKLQEIYQELTWLKAAVGELPEKSKMQEIYQELTRLKAAVGELPEKSKQQEIYQELTRLKAAVGELPEKSKQQEIYQELTRLKAAVGELPEKSKQQEIYQELTQLKAAVERLCHPCPWEWTFFQGNCYFMSNSCRNWHDSITACKEVGAQLVVIKSAEEQNFLQLQSSRSNRFTWMGLSDLNQEGTWQWVDGSPLLPSFKQYWNRGEPNNVGEEDCAEFSGNGWNDDKCNLAKFWICKKSAASCSRDEEQFLSPAPATPNPPPA", "values": [
      {"measurement": "stoichiometry N", "setting": "[2]", "value": 4}
    ]}
  ]
}
